Assay: soluble on expression in E. coli; label from the status in PepcDB or PDB records

Sequence | soluble on expression in E. coli
MSLRFDGKVAIVTGAGGGLGKTYALELAKRGCKVVVNDLGGDRHGTSSSSSMADKVVQEIKSAGGQAVANYDSVEFGDKIVKTAIDNFGRIDIVINNAGILRDVSFLKMTELDWDLIFKVHVKGAYAVTKAAWPYMRDQKYGRIVVTSSNAGVHGNFGQANYAAAKSALIGLSNSLAQEGAKYNILANTLVPTAGSRLTETVMPQNLVDALKPDYVTPLVTYMVHDSFEESGKVFEAGAGWYGTIQYYKSKGKVISHASADDIAKNWSTITNMNGAEYIGTITEQSARLVSILEEHEASSGSSSASSGASSGGAFPSNIRSSALFQEMADGVKADPTAVKTLKSIVLYIITDGKNELGKFTLDFKSASPSVYLGDVKNGEKANATVTVADSDFVDIAAGKLNAQKAFMSGKLKVKGNVMLLQKLQTVLEKAKKSKL | not soluble
MHKVQRSVLVPYSAAQMFDLVADVEKYPEFMPWCGGAEVHSRSEHGMQASILISFAGLKQRFSTRNTHDYPQRIDLELVDGPFSMLVGHWVFQPLAEDACKVLFTLEYAFSNRALEMVVGPVFNRIAASFIDSFTKRAQAKYGEAAALEHHHHHH | soluble
MGHHHHHHSHMRISPGQINQVRPKLPLLKILHAAGAQGEMFTVKEVMHYLGQYIMVKQLYDQQEQHMVYCGGDLLGELLGRQSFSVKDPSPLYDMLRKNLVTLATATT | not soluble
GETASSLWIDAAVAVSVPFQLNSVADRMNQGFSRLYQAYLLSRLRRIFLKKLNHLNNSPFSKSDLLSLKTFWDFDERITAPINGFKNAHEYYQKASSRQYLKNITTPTLIIHAQDDPFMTPDAIPASKELSSQTTLELSEYGGHVGFIAGTGKNSSQPVYWLEQRIPEFLLEYLS | not soluble
MSLGLHITDQQVHRYMSQRRHHTQAVAAAKAGISERSARRIDKNPQLPSQKKRERHWRTRPDPLEQIWPRVEELLKIAGILSVTIFETVQDEFGEAAVPDGVRRTLERRIARWRALNGGEKEIFFPQHHEIGRQGLLDFTVADDLHVTIAGQRFDHRLFHFRLASSGWEDSAVVLGGESFTALSEHLQDALWKLGGVPAELRSDSLSAAYKNLDADAQRDFTRNYEALCRHYGMTPTRNNKGVAHENGSIEAPNGHLKRRMDQALRRRSSRDFPSIEDYRRFVDQEVAKQNRRRARLMDDERRVLKSLPPKRTTDFTLVSADVTRNSTISVDRVTYSVPSRLIGYRLHAHLYDDRVEFFLGPDQVMTADRVRVKHAERGHNIDFRHFIGNLKRKPQALRYLVYRNALFPTHAYTRAWQALDAALDARQACRDMVALLDIAANGNCVDALALRIEAALDRGKLPNVAKLKSEFLPTVRSRVDVTIPPPDFAGYNHLLANAQEGHHHHHH | not soluble
MAHHHHHHMKLMLKKKKKGRKRKRSYYKEIESLFWTAEDYNFDKDKQYLENIDKNMLVKLFELICFYSLKDLHVYEEQALITSKMLDIIQIPEGRAFYGFQMCMENIHDEVYACIFETYIPDSKQKRVIINKVIELDSVLKKQKWLTEIFESNIPYYNKLVLLYISKVLFNGTLNILIGYCKENSILPCLCNVHEKIHRDEYLHGDFSVMCCNHLVNKLKYEHVLDYFKMAVDLEYQFSLEMLELNVLKIKKEQVRAFLEYLTDTMLTNLKYPKHYNSKYPFSWPEFTKIIVNENGKEETVKKGENVYGEKQILFDEDF | not soluble
MSLEKPKYKRIVLKLSGEALAGEQGNGINPTVIQSIAKQVKEIAELEVEVAVVVGGGNLWRGKTGSDLGMDRATADYMGMLATVMNSLALQDSLETLGIQSRVQTSIEMRQVAEPYIRRKAIRHLEKKRVVIFAAGTGNPYFSTDTTAALRAAEIEADVILMAKNNVDGVYNADPRKDESAVKYESLSYLDVLKDGLEVMDSTASSLCMDNDIPLIVFSIMEEGNIKRAVIGESIGTIVRGKEGHHHHHH | soluble
MLKSVLDALENGRLVELPDNDKSDALQFLATILEAVPSIPAGSNIVEIVLEHEKNSNTSLGFGWACPHARVNFDGDLCCAIGWSPAGIDYGIAGEPLVRLVVMFFVPENQRNTYLKEVSTLARVLKSNPEFQNLEPIGDLDQVRNTLLDMTHQAMSEGGKNYRARMIQLDTLTKSAGDAGHYWLKGMQIDALLVVAGPDIKPLVLSQNAELSRLATQDTQLVPAIASGNHYELQGWQIVRRSSTAYAGERVIYDCLAIKTRQGQGAPEAGG | soluble
MPESVAVTGGNGRIGKHVLDHLTTAGYRTVNLSRGKCDEAHSDAYIKTDLLDAGELYGALAKSDADTVVHLGMIPTPDQTPGYRTYESNVMSSYHVLEAAGELGIDTVALASSFSAIGGGFEPDLITVDYLPIDEDHRLTPSNPYAMGKQTLEIAADGFARRSTDAPETITSLRFPWVVDDDLAQETFVEADRTLAGLRNSDHFHTQRNTLCGYVHVTDAVALVEAAIEASFAGHERLWVSAPDTSAETPSAELAAELYSDADYRGQTGDDGSPYTALIDTTKAERLLGWEPTWNWRQLA | not soluble
KLGAPVKKAILEALSERDQTADICKDSKGNIEPDTQLRDTELVAFPDHLTLPLPVNYDKEPDLSKLLPLVKAHCEAYLKAEVLPHVADAWIDYSKTKVGYEIPINRHFYIYEPPRPLEEIKAEIVQLEQEIMQMLGGLSA | not soluble
MGHHHHHHSHMAYNKEEKIKSLNRMQYEVTQNNGTEPPFQNEYWDHKEEGLYVDIVSGKPLFTSKDKFDSQCGWPSFTKPIEEEVEEKLDTSHGMIRTEVRSRTADSHLGHVFNDGPGPNGLRYCINSAALRFVPKHKLKEEGYESYLHLFNK | soluble
ANFNVPKLGVFPVAAVFDIDNVPEDSSATGSRWLPSIYQGGNYWGGGPQALHAQVSNFDSSNRLPYNPRTENNPAGNCAFAFNPFGQYISNISSAQSVHRRIYGIDLNDEPLFSPNAASITNGGNPTMSQDTGYHNIGPINTAYKAEIFRPVNPLPMSDTAPDPETLEPGQTEPLIKSDGVYSNSGIASFIFDRPVTEPNPNWPPLPPPVIPIIYPTPALGIGAAAAYGFGYQVTVYRWEEIPVEFIADPETCPAQPTTDKVIIRTTDLNPEGSPCAYEAGIILVRQTSNPMNAVAGRLVPYVEDIAVDIFLTGKFFTLNPPLRITNNYFADDEVKENTVTIGNYTTTLSSAYYAVYKTDGYGGATCFIASGGAGISALVQLQDNSVLDVLYYSLPLSLGGSKAAIDEWVANNCGLFPMSGGLDKTTLLEIPRRQLEAINPQDGPGQYDLFILDDSGAYASFSSFIGYPEAAYYVAGAATFMDVENPDEIIFILRNGAGWYACEIGDALKIADDEFDSVDYFAYRGGVMFIGSARYTEGGDPLPIKYRAIIPGLP | soluble
MGSDKIHHHHHHMTLMKPADVSQRQSTSVLHSSSHSPSQNHLLAALPQVELESFSDHLELVPMPLGEFLYEPGSGLEYVYFPTTCIVSLHYVLSSGATAETAGVGNEGVVGVSLFMGGNTTASSAVVQTAGYGYRLNKKILMREFDRSGLLQRVLLRYTQALMTQMSQTAVCNRHHSLEQQFCRWLLLTLDRMPTNELVMTHELVASMLGVYREGISLAAGKLQQAGVISYRRGHISVLDRAKLELKSCECYQVVKTELDRLLSDGLLADAKFIKTKTDTQTSKTQ | not soluble
MGSDKIHHHHHHMTLKITKSDEVIEVKNLCVTIYSQPGLGKTSLAFTASRPLLLDFDKGAHRAVDRKDVVQVEDWRDVAGISAGDLAAYDTIVIDTVGKALDTLSADIIRANSKLSYGGALNQQGWGQLGVRFSAFLKLLRSFGKDVVLISHMDEKADGDAIKERLKISGGSKDLVLTDSDVIARISIYNRERHLIFSPTETSFGKDPANIGAMPIPEASAETYATCLSDIITQIKEGMNALSEEQVQRKAEIDWFATKLPEMTSAEEINGVLGRAKKAGKDIQKMVVARAKELGFDFDPEAREYVDPSAALADELDDEIPEFDDADEPESPAMAAE | not soluble
MEQKQRRFTKNIFVLDVTAKTLCGAIAKLSSQPYCQIKIGRVVAFKPVKNPEPKGYVLNVPGPGAYRIQDGQDIISLMLTPHGVEATTERWEEWKFEGVSVTPMATRVQYNGVMVDAEIKYCKGMGIVQPYMRNDFDRNEMPDLPGVMRSNYDIRELRQKIKNERESAPRLQVHSVARPGSENLYPQ | soluble
MLPTILALLLAPLATALPPTIIRSPKVTGWGWWSEMESCPPGYFAHGMRIKYERDSGSLDETGLNAIELACKNRAVPSSGDTYIKGAEGVFGGWQAYQYCPQGEYVIGFALQSESWRGGNKDDVAANNFAAYCGRPEAPRRRYSWIQGSVNERGSWTRDQFCPARQIVCGIIVQIEPAQAPHVDDASLDSVGLKCCDF | not soluble
